Assay results taken from US20080113421A1, “Stabilizing proteins against denaturation and inactivation by charged detergents using chemical modifications, including modifications that increase net charge” (President and Fellows of Harvard College, priority 2006, published 2008).

How the values were obtained:
Assay type in all cases: physicochemical
[1] = Refolding after 1 week incubation at intermediate SDS concentrations (aggregation test); conditions: denatured in 10 mM SDS, incubated 1 week at intermediate SDS, diluted into 0.1 mM SDS
Description: Aggregation was tested by renaturing the proteins from a denatured state at 10 mM SDS to 0.1 mM SDS, but through an incubation step at intermediate concentrations of SDS, instead of renaturing by rapid dilution from 10 mM SDS to 0.1 mM SDS directly (i.e., 10 mM SDS→2.5 mM SDS→0.1 mM SDS instead of 10 mM SDS→0.1 mM SDS). For incubation, concentrations of SDS were chosen in which aggregation was believed to occur on a similar or shorter time scale as refolding. The protein-SDS complex was diluted from 10 mM SDS to 2.5-0.7 mM SDS, the proteins were incubated for 1 week at those concentrations, and the samples further diluted to 0.1 mM SDS to initiate fast refolding.
The fluorescence signal from DNSA was normalized to that of refolded protein by rapid dilution from 10 to 0.1 mM SDS.

[2] = Screening of additives in denaturation/renaturation with SDS
Description: Additives in de-/renaturation included the following. The effects of the following additives on denaturation and renaturation of BCA and BCA-Ac18 were screened: poly(ethelyneglycol) (PEG, MW=2000), 0.1 mM, 1 mM; poly(vinylpyrrolidone), MW=10 000, 1%, 10% w/v; 3-(3-cholamidopropyl)dimethylammoniopropane sulfonate (CHAPS), 1 mM; octanol, 1 mM; tetrabutylammonium thiocyanate, 100 mM; sodium thiocyanate, 100 mM, 1 M; sodium sulfate, 10 mM; betaine, 1 M; dimethyl sulfoxide (DMSO), 1%, 10% v/v; N-methylpyrrolidone, 1%, 10% v/v. The screening was performed in a 96-well plate format, using a SpectraMax Gemini XS spectrometer (Molecular Devices), with a protein concentration of 100 nM, a DNSA concentration of 10 micromolar (present in the denaturation/renaturation buffers), and variable concentrations of SDS.
In some experiments, various additives were used to prevent aggregation of BCA and BCA-Ac18. These additives were commonly used to prevent aggregation of carbonic anhydrases and other proteins. The additives included polymers (PEG), other surfactants (CHAPS), “salting-in” Hofmeister salts (tetrabutylammonium thiocyanate and sodium thiocyanate), osmolytes (betaine), and organic solvents (dimethyl sulfoxide and N-methylpyrrolidone). […] For example, in 10% DMSO, it was observed that refolding of BCA up to 1.2 mM SDS (vs. 0.7 mM SDS without a cosolvent), but unfolding up to 2.5 mM SDS was not observed.

[3] = Unfolding (denaturation) of protein in SDS in Tris-Gly buffer, monitored by DNSA fluorescence
Description: Monitoring unfolding of BCA and BCA-Ac18 was performed as follows. The proteins (200 nM) were incubated in different concentrations of SDS in Tris-Gly buffer. A 100 microliter aliquot of protein-SDS solution was mixed with 100 microliters of DNSA solution (30 micromolar) with the same concentration of SDS, and measured the intensity of fluorescence (Perkin-Elmer LS50B spectrometer, λex=280 nm, λem=460 nm) as a function of time. The denaturation of BCA was continuously monitored in concentrations of SDS above 4 mM. The rate constants were determined for denaturation by fitting the intensity vs. time data to FU=FUmaxe^−kt+FUmin. Unfolding experiments at 37° C. were performed similarly, with samples stored in a dry bath incubator (Fisher Scientific).
The kinetics of unfolding were determined as follows. The rates of denaturation of BCA and BCA-Ac18 were measured by incubating the protein (200 nM) in solutions of different concentrations of SDS. Immediately prior to the measurement, an aliquot of solution containing protein and SDS was mixed with a solution containing DNSA and the same concentration of SDS; this protocol minimized the possibility that DNSA might stabilize the native conformation of the protein, and influence the rate of its denaturation. When BCA was denatured in concentrations of SDS of 4 mM and higher, DNSA was added to the original, denaturing solution because the rate of denaturation was too fast to follow with manual mixing of aliquots of protein and DNSA. It was observed that DNSA, when present with the protein in the denaturing solution, reduced the rates of denaturation by factors of about 2-10.
FIG. 1 plots the fluorescence of DNSA, normalized to the signal at t=0, as a function of time of incubation of samples of BCA and BCA-Ac18 in various concentrations of SDS. The decrease in the intensity of fluorescence of DNSA, and thus in the amount of folded protein, followed first-order kinetics. Denaturation of proteins with surfactants probably proceeds through intermediates, but when using a marker that is specific to the folded active site of carbonic anhydrase, transitions beyond the initial unfolding of the three-dimensional structure of the protein were not detected.
The tables list the half-lives (t1/2) for denaturation of BCA and BCA-Ac18 at several concentrations of SDS. The denaturation of BCA at 4 mM occurred very rapidly, and data are not shown to avoid overlap with data at 3.5 mM. The error bars represent the difference between the average and the largest and smallest values measured from at least three replicate measurements.

bovine carbonic anhydrase II [BCA]
t1/2 for refolding [1]: 648 ± 36 s
highest SDS concentration at which refolding was observed ([2]; 1 mM CHAPS): up to 1.8 mM
SDS concentration needed for unfolding ([2]; 1 mM CHAPS, unfolding did not occur below this concentration): ≥ 2.5 mM
highest SDS concentration at which refolding was observed ([2]; 10% DMSO): up to 1.2 mM
SDS concentration needed for unfolding ([2]; 10% DMSO, unfolding up to this concentration not observed): > 2.5 mM
highest SDS concentration at which refolding was observed ([2]; without a cosolvent): ≤ 0.7 mM
t1/2 for denaturation ([3]; 4 mM SDS, Tris-Gly buffer, with DNSA present during denaturation): 15 s
t1/2 for denaturation ([3]; 10 mM SDS, Tris-Gly buffer): < 5 s
denaturation in low concentrations of SDS ([3]; SDS below 2 mM, long (~1 month) periods of time): no denaturation
concentration of SDS at which the protein denatures ([3]; Tris-Gly buffer, CMC 4.3 mM): ≥ 2500 µM
